“And” between values parts separate entries of the source, which are not always exact repeats. Equal entries are not always repeated.

This assay concerns the target rFVIII (recombinant Factor VIII) (UniProt P00451). As to the kind of experiment: ELISA chromogenic assay (ECA): rFVIII incubated with rVWF, complex captured on anti-VWF antibody, bound FVIII read by chromogenic assay. (In general: An ELISA detects its analyte on a solid surface through an enzyme-linked reagent.)

On to “human recombinant VWF (rVWF) (from UniProt P04275 764-2813)”, for which the FVIII binding (%) was 51.7% and 64.6% and 63.1%.

Values taken from patent publication US20110092681A1.
